This note sets out measurements from patent publication US20140213531A1 (POLYPHOR, published 2014).

A value given as a limit tells only on which side of the number the result lay.

Common to all, as to test: cell-based or functional assay
The target of test [1] is Thrombin, from Human Plasma, high activity (human, UniProt P00734 328-622).
Test [2] concerns the target Urokinase from human urine (human, UniProt P00749 21-431, limits assumed).
Another test deals with T1, Chymase, from human skin (human, UniProt P23946 22-247).
T1 sequence (looked up): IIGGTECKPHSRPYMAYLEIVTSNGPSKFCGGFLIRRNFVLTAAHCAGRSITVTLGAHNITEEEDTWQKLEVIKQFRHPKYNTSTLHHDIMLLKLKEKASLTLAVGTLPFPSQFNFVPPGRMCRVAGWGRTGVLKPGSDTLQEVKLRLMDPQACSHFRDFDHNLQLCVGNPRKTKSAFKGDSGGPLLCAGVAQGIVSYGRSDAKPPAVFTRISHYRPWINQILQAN

The target of test [3] is T2, CathepsinG, from human neutrophils (human, UniProt P08311 21-244).
T2 sequence (looked up): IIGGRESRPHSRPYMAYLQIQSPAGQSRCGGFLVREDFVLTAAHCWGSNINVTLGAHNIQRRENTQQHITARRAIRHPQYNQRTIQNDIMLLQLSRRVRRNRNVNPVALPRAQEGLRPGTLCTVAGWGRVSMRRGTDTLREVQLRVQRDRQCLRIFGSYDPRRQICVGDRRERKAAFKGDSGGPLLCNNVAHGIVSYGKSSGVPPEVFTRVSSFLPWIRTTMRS

For test [4], the target named is Chymotrypsin, from human pancreas (human, UniProt P17538 19-263).
Chain of Chymotrypsin, from human pancreas (P17538 19-263): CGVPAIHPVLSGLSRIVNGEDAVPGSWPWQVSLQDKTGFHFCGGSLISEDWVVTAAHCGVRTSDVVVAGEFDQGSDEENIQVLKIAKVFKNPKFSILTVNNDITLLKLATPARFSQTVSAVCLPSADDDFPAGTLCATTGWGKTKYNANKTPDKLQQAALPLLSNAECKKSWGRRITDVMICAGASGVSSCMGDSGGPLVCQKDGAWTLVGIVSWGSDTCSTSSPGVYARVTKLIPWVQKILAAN
In test [5] the target is T3, Elastase from human neutrophils (human, UniProt P08246 30-247, limits assumed).
T3 sequence (looked up): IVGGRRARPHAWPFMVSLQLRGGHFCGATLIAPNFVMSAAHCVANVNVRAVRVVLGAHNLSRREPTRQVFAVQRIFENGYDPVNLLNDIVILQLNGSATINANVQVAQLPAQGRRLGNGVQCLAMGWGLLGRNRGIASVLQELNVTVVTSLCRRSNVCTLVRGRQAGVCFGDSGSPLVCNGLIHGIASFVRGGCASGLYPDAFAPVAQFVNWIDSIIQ

The target in test [6] is Tryptase, from human lung (human, UniProt Q15661 31-275, limits assumed).
Chain of Tryptase, from human lung (Q15661 31-275 limits assumed): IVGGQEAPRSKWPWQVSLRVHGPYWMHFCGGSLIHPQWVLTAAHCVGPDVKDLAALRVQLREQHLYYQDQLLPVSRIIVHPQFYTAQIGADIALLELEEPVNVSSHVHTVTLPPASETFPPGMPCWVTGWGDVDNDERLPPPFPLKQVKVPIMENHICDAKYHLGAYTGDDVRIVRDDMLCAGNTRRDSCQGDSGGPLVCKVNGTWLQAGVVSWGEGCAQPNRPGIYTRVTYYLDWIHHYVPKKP
Test [7] deals with Trypsin, Iodination grade, from human pancreas (human, UniProt P07477 24-247).
The target in test [8] is Coagulation Factor Xa, from human plasma (human, UniProt P00742 41-488, limits assumed).
Chain of Coagulation Factor Xa, from human plasma (P00742 41-488 limits assumed): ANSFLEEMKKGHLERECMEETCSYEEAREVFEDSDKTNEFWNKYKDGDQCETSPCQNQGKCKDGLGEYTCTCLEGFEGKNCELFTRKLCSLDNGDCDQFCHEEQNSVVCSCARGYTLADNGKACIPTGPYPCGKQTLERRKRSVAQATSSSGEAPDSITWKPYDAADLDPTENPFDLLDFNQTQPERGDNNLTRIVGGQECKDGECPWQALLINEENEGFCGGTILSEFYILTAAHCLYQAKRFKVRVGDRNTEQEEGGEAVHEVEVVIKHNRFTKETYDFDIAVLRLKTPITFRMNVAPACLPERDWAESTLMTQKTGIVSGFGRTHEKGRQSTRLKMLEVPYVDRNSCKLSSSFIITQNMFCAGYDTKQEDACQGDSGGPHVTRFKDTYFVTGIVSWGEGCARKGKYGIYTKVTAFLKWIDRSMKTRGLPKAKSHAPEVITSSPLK

B1: Example 49 (peptide)
peptide: FCTKSDPPICS
HELM: PEPTIDE1{F.C.T.K.S.D.P.P.I.C.S.[dA].P}$PEPTIDE1,PEPTIDE1,2:R3-10:R3|PEPTIDE1,PEPTIDE1,1:R1-13:R2$$$V2.0
SMILES: CC[C@H](C)[C@@H]1NC(=O)[C@@H]2CCCN2C(=O)[C@@H]2CCCN2C(=O)[C@H](CC(=O)O)NC(=O)[C@H](CO)NC(=O)[C@H](CCCCN)NC(=O)[C@H]([C@@H](C)O)NC(=O)[C@@H]2CSSC[C@H](NC1=O)C(=O)N[C@@H](CO)C(=O)N[C@H](C)C(=O)N1CCC[C@H]1C(=O)N[C@@H](Cc1ccccc1)C(=O)N2
Consider B1, for which the % inhibition – broadly, the relative decrease from the control value, in per cent – at 100 µM in test [1] amounted to 7.9%; in test [2], 6.2%; with Chymase, from human skin, 0%; in test [4], 0%; in [6] it was 30.5%; in test [7], 96%. Moreover, the IC50 was 82 nmol in test [3] and over 10000 nmol in test [5].

B2: Example 30 (peptide)
peptide: XCTKSDPPICY
HELM: PEPTIDE1{[O=C([C@H](CCc1ccccc1)N[*:1])[*:2]].C.T.K.S.D.P.P.I.C.Y.[dP].P}$PEPTIDE1,PEPTIDE1,2:R3-10:R3|PEPTIDE1,PEPTIDE1,1:R1-13:R2$$$V2.0
SMILES: CC[C@H](C)[C@@H]1NC(=O)[C@@H]2CCCN2C(=O)[C@@H]2CCCN2C(=O)[C@H](CC(=O)O)NC(=O)[C@H](CO)NC(=O)[C@H](CCCCN)NC(=O)[C@H]([C@@H](C)O)NC(=O)[C@@H]2CSSC[C@H](NC1=O)C(=O)N[C@@H](Cc1ccc(O)cc1)C(=O)N1CCC[C@@H]1C(=O)N1CCC[C@H]1C(=O)N[C@@H](CCc1ccccc1)C(=O)N2
Regarding B2, the “% inhibition at 100 µM” value in [1] came to 2%; in [8] it was 3%; in [2], 9%; in the test with Chymase, from human skin, 0%; in [4] it was 49%; in test [7], 98%. In addition, the IC50 in test [3] is 39 nmol; in test [5], 49900 nmol.

B3: Example 56 (peptide)
peptide: ICTKSDPPYCR
HELM: PEPTIDE1{I.C.T.K.S.D.P.P.Y.C.R.[dP].P}$PEPTIDE1,PEPTIDE1,2:R3-10:R3|PEPTIDE1,PEPTIDE1,1:R1-13:R2$$$V2.0
SMILES: CC[C@H](C)[C@@H]1NC(=O)[C@@H]2CCCN2C(=O)[C@H]2CCCN2C(=O)[C@H](CCCNC(=N)N)NC(=O)[C@@H]2CSSC[C@H](NC1=O)C(=O)N[C@@H]([C@@H](C)O)C(=O)N[C@@H](CCCCN)C(=O)N[C@@H](CO)C(=O)N[C@@H](CC(=O)O)C(=O)N1CCC[C@H]1C(=O)N1CCC[C@H]1C(=O)N[C@@H](Cc1ccc(O)cc1)C(=O)N2
In the case of B3, the “% inhibition at 100 µM” value was 0% in [1]; 32.5% with Chymase, from human skin; 25% in test [4]; 88.3% in test [6]; 84% in test [7]. Also, the IC50 in [3] was 47 nmol; in test [5] it was over 100000 nmol.

B4: Example 20 (peptide)
peptide: ICTKSDPPXCR
HELM: PEPTIDE1{I.C.T.K.S.D.P.P.[Cha].C.R.[dP].P}$PEPTIDE1,PEPTIDE1,2:R3-10:R3|PEPTIDE1,PEPTIDE1,1:R1-13:R2$$$V2.0
SMILES: CC[C@H](C)[C@@H]1NC(=O)[C@@H]2CCCN2C(=O)[C@H]2CCCN2C(=O)[C@H](CCCNC(=N)N)NC(=O)[C@@H]2CSSC[C@H](NC1=O)C(=O)N[C@@H]([C@@H](C)O)C(=O)N[C@@H](CCCCN)C(=O)N[C@@H](CO)C(=O)N[C@@H](CC(=O)O)C(=O)N1CCC[C@H]1C(=O)N1CCC[C@H]1C(=O)N[C@@H](CC1CCCCC1)C(=O)N2
Turning to B4, the “% inhibition at 100 µM” value in test [1] amounted to 28%; in [8], 25%; in test [2], 6.7%; with Chymase, from human skin, 44.1%; in [4], 0%; in test [7], 97%. In addition, the IC50 is 48 nmol in test [3] and over 100000 nmol in [5].

B5: Example 18 (peptide)
peptide: ICTKSDPPYCR
HELM: PEPTIDE1{I.C.T.K.S.D.P.P.Y.C.R.[dP].P}$PEPTIDE1,PEPTIDE1,2:R3-10:R3|PEPTIDE1,PEPTIDE1,1:R1-13:R2$$$V2.0
SMILES: CC[C@H](C)[C@@H]1NC(=O)[C@@H]2CCCN2C(=O)[C@H]2CCCN2C(=O)[C@H](CCCNC(=N)N)NC(=O)[C@@H]2CSSC[C@H](NC1=O)C(=O)N[C@@H]([C@@H](C)O)C(=O)N[C@@H](CCCCN)C(=O)N[C@@H](CO)C(=O)N[C@@H](CC(=O)O)C(=O)N1CCC[C@H]1C(=O)N1CCC[C@H]1C(=O)N[C@@H](Cc1ccc(O)cc1)C(=O)N2
On to B5, for which the “% inhibition at 100 µM” value stood at 0% in test [1]; 32.5% with Chymase, from human skin; 25% in [4]; 88.3% in test [6]; 84% in [7]. Further, the results for the IC50 in [3] and in test [5] were 47 nmol and over 100000 nmol, respectively.

B6: Example 19 (peptide)
peptide: ICTKSDPPXCR
HELM: PEPTIDE1{I.C.T.K.S.D.P.P.[Nle].C.R.[dP].P}$PEPTIDE1,PEPTIDE1,2:R3-10:R3|PEPTIDE1,PEPTIDE1,1:R1-13:R2$$$V2.0
SMILES: CCCC[C@@H]1NC(=O)[C@@H]2CCCN2C(=O)[C@@H]2CCCN2C(=O)[C@H](CC(=O)O)NC(=O)[C@H](CO)NC(=O)[C@H](CCCCN)NC(=O)[C@H]([C@@H](C)O)NC(=O)[C@@H]2CSSC[C@H](NC1=O)C(=O)N[C@@H](CCCNC(=N)N)C(=O)N1CCC[C@@H]1C(=O)N1CCC[C@H]1C(=O)N[C@@H]([C@@H](C)CC)C(=O)N2
B6: the “% inhibition at 100 µM” value worked out at 11% in test [1]; 32% in test [8]; 4% in [2]; 26.9% with Chymase, from human skin; 0% in test [4]; 94% in test [7]. Also, the figures for the IC50 in test [3] and in test [5] were 41 nmol and over 100000 nmol, respectively.

B7: Example 23 (peptide)
peptide: FCTXSDPPICY
HELM: PEPTIDE1{F.C.T.[Nle].S.D.P.P.I.C.Y.[dP].P}$PEPTIDE1,PEPTIDE1,2:R3-10:R3|PEPTIDE1,PEPTIDE1,1:R1-13:R2$$$V2.0
SMILES: CCCC[C@@H]1NC(=O)[C@H]([C@@H](C)O)NC(=O)[C@@H]2CSSC[C@H](NC(=O)[C@H]([C@@H](C)CC)NC(=O)[C@@H]3CCCN3C(=O)[C@@H]3CCCN3C(=O)[C@H](CC(=O)O)NC(=O)[C@H](CO)NC1=O)C(=O)N[C@@H](Cc1ccc(O)cc1)C(=O)N1CCC[C@@H]1C(=O)N1CCC[C@H]1C(=O)N[C@@H](Cc1ccccc1)C(=O)N2
Regarding B7, the “% inhibition at 100 µM” value in test [1] was 0%; in test [8], 11%; in test [2] it was 9%; with Chymase, from human skin it was 60%; in test [4] it was 4%; in test [7], 90%. Also, the IC50 in test [3] was 38 nmol; in [5], over 100000 nmol.

B8: Example 81 (peptide)
peptide: XCTASXPPQCY
HELM: PEPTIDE1{[Nle].C.T.A.S.[CCCCCCCC[C@H](N[*:1])C(=O)[*:2]].P.P.Q.C.Y.[dP].P}$PEPTIDE1,PEPTIDE1,2:R3-10:R3|PEPTIDE1,PEPTIDE1,1:R1-13:R2$$$V2.0
SMILES: CCCCCCCC[C@@H]1NC(=O)[C@H](CO)NC(=O)[C@H](C)NC(=O)[C@H]([C@@H](C)O)NC(=O)[C@@H]2CSSC[C@H](NC(=O)[C@H](CCC(N)=O)NC(=O)[C@@H]3CCCN3C(=O)[C@@H]3CCCN3C1=O)C(=O)N[C@@H](Cc1ccc(O)cc1)C(=O)N1CCC[C@@H]1C(=O)N1CCC[C@H]1C(=O)N[C@@H](CCCC)C(=O)N2
In the case of B8, the figures for the “% inhibition at 100 µM” value in [1], in test [8] and in [3] were 13.1%, 8.7% and 61.3%, respectively. This molecule also yielded an IC50 in test [5] of 28 nmol.
